The source of these data is paper PMC4915627, “Staphylococcal Bap Proteins Build Amyloid Scaffold Biofilm Matrices in Response to Environmental Signals” (PLoS Pathogens, 2016).

Data set [1] deals with the molecule itself. The data set is described as follows: gel formation + electron microscopy + thioflavin-T fluorescence; synthetic peptide at 10 μM, pH 4.5, citrate buffer, room temperature (25°C), four weeks.
Data set [2] concerns the molecule itself. Description: thioflavin-T fluorescence; fresh rBap_B at 0.01-0.036 mg/ml, 25 μM ThT, 25°C, pH 4.5, 5 min.

B1: Bap_B amyloid peptide I (aa 487 to 496) (peptide)
peptide: TVGNIISNAG
notes: Bap of Staphylococcus aureus, stretch of region B, aa 487 to 496; source: synthetic peptide, bought: CASLO ApS
For the protein B1, the binding result in data set [1] is recorded as “binds”.

B2: purified recombinant Bap_B protein (region B of Bap of S. aureus V329, amino acids 361-819, N-terminal hexahistidine tag) (domain or fragment)
chain: QKSLGYTDNYTFASMLFDPGKLDSDDALNSNIIPFDLHSYMSGANSGNRYKIDLKLDPIIAEHVTKISANPSGSNKPVEFVRNKDENGNLTDTWEVNFIRANDGLFGGAEILSQYTAKNGKIELDDTVGNIISNAGNLSNNKLNHQVFVRDSRENKIVRTSESSGYFLTKADDDLVNLENNVSTENNNAFKASSGSATYNENVGEFGGILIDQQIMKNGIFSYSKTKANQWAYNYQIDKDLLPYIEGVELHQYDYKGLNGFDKNYDAKNKVADLTIDEVGNGTITSDNLNKLIEFNNALPETVGVRVVLKLNKSVNNILTKDAKYDSEGNLIRETTKQKEDFTFAGYLTDSKGALINNTLGTSTLALQDYDKDGLLDRYERQLSLSDAENEDTDGDGKNDGDEVVNYKTSPLVGKPQAADITTEDTVVSGSVPLKEGAATQTAKVINAEGTTVGTATVN
notes: Biofilm associated protein Bap of Staphylococcus aureus V329, region B, amino acids 361-819 (1377 bp fragment cloned in pET46-Ek/LIC); The results give domain B as residues 362-819 (chimeras); the methods give 361-819 for the recombinant protein; also called B domain of Bap
As for B2, the binding result in data set [2] is on record as “binds”.

B3: Bap_B amyloid peptide II (aa 579 to 584) (peptide)
peptide: GIFSYS
notes: Bap of Staphylococcus aureus, stretch of region B, aa 579 to 584; also called GIFSYS; source: synthetic peptide, bought: CASLO ApS
Turning to B3, the binding result in data set [1] is on record as “binds”.
